Laboratory results as given in paper PMC10052374, “Jasmonate activates a CsMPK6-CsMYC2 module that regulates the expression of β-citraurin biosynthetic genes and fruit coloration in orange (Citrus sinensis)”.

B1: CsPSY-probe (dsDNA)
DNA 1: AAAACTTCAATTGATACTCTTCCACTAATTCT
DNA 2: AGAATTAGTGGAAGAGTATCAATTGAAGTTTT
B2: CsBCH-probe (dsDNA)
DNA 1: AATTTCGAATCTAACAAATGTTTCGTTGATAT
DNA 2: ATATCAACGAAACATTTGTTAGATTCGAAATT
B3: CsCCD4b-probe (dsDNA)
DNA 1: GTACCATACAACTGTGGCACCATAGCTGGATC
DNA 2: GATCCAGCTATGGTGCCACAGTTGTATGGTAC
B4: CsMPK6-probe (dsDNA)
DNA 1: AGCTCTATGTAACAACTGGGATCTATTTGAAA
DNA 2: TTTCAAATAGATCCCAGTTGTTACATAGAGCT
B5: CsLCYb-probe (dsDNA)
DNA 1: CGACAGTTGGACCACTAGCTTCGTGACCGTTGT
DNA 2: ACAACGGTCACGAAGCTAGTGGTCCAACTGTCG

How the values were obtained:
CsMYC2-MBP = CsMYC2-MBP (Citrus sinensis (Newhall orange), UniProt V4SX11 1-519); assay: EMSA; BLI: PBS, 100 nM biotin probe on SA sensors, CsMYC2-His 62.5-1000 nM, 1:1 fit. DNA pull-down: probe bound to beads in 10 mM Tris-HCl pH 7.5, 1 mM EDTA, 1 M NaCl, 0.1% Tween-20 at RT, then protein 1 h on ice. EMSA: as in Yue et al. 2019, buffer not given; conditions: protein: recombinant; tags: MBP (pMAL-C2X); chain copies: 2; label: 3' biotin
CsMYC2-MBP, sequence (V4SX11 entry or part of it): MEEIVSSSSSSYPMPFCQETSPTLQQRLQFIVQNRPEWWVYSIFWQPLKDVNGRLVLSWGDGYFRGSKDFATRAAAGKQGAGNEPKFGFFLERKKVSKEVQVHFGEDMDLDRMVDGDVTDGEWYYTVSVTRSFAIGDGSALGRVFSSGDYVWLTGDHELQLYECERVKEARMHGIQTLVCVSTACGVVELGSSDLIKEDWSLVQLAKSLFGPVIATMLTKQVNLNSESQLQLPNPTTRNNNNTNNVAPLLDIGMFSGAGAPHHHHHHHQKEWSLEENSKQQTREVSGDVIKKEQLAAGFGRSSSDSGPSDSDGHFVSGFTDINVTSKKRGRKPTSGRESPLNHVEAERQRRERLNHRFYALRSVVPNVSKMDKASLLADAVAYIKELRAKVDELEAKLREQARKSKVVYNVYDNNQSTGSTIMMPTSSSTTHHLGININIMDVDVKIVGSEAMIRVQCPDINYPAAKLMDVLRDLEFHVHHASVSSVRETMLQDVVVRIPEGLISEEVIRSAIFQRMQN

CsMYC2-His = CsMYC2-His (Citrus sinensis (Newhall orange), UniProt V4SX11 1-519); assay: BLI; BLI: PBS, 100 nM biotin probe on SA sensors, CsMYC2-His 62.5-1000 nM, 1:1 fit. DNA pull-down: probe bound to beads in 10 mM Tris-HCl pH 7.5, 1 mM EDTA, 1 M NaCl, 0.1% Tween-20 at RT, then protein 1 h on ice. EMSA: as in Yue et al. 2019, buffer not given; conditions: protein: recombinant; tags: His (pET30A); chain copies: 2; label: 3' biotin
CsMYC2-His, sequence (V4SX11 entry or part of it): as above

Binder	binding result (CsMYC2-MBP)	Kd (CsMYC2-His) [nM]
B1	binds	
B2	binds	
B3		58
B4	binds	
B5	binds	
